Results: paper PMC8585947, “Structure of Escherichia coli cytochrome bd-II type oxidase with bound aurachin D” (Nature Communications, 2021)

T1: AppC, subunit of Escherichia coli cytochrome bd-II oxidase (E. coli, UniProt P26459 1-514)
T1 construct: AppC, cytochrome bd-II oxidase subunit, E. coli; predicted molecular mass 58.1 kDa; gene amplified from genomic DNA of strain BW25113; also called AppChis
T1 sequence: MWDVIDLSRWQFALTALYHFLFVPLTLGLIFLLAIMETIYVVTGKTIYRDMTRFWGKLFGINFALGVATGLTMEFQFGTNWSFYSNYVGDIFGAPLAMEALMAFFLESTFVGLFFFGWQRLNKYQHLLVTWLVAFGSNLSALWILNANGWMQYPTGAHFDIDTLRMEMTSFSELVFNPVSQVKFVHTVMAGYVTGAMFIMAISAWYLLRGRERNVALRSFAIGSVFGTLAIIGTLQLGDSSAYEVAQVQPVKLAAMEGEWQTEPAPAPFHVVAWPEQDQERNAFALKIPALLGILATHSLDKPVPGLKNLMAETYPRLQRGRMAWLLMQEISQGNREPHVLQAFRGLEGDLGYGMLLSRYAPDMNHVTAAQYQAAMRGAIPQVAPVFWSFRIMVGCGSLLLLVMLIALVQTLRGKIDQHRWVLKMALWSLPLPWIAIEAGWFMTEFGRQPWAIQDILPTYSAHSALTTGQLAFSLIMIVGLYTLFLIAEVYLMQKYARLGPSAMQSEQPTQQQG


Assays:
[1] = molecular target: T1, AppC, subunit of Escherichia coli …; assay: cryo-EM structure; bd-II in amphipol A8-35, 5.6 mg/mL, incubated with aurachin D; 20 mM MOPS, 20 mM NaCl, pH 7.0; C2 symmetry imposed; 3.0 Å; details: both partners purified
[2] = molecular target: the molecule itself; assay: as above

binding result [1]	Binder	binding result [2]
binds	MWYLLWFVGILLMCSLSTLVLVWLDPRLKS (natural protein, E. coli, AppX, cytochrome bd-II oxidase subunit, E. coli; length of 30 amino acid residues; predicted molecular mass 3.6 kDa; gene amplified from genomic DNA of strain BW25113) [AppX, single helix subunit of Escherichia coli cytochrome bd-II oxidase]	binds
binds	AppB, subunit of Escherichia coli cytochrome bd-II oxidase (natural protein, AppB, cytochrome bd-II oxidase subunit, E. coli; predicted molecular mass 42.4 kDa; gene amplified from genomic DNA of strain BW25113) not shown	–
